Laboratory results published in article PMC7829508, “Binding of Campylobacter jejuni FliW Adjacent to the CsrA RNA-Binding Pockets Modulates CsrA Regulatory Activity” (Frontiers in Microbiology, 2020).
Residue numbers refer to the chain shown, from its start. Names may count otherwise.

Assays:
FliW-His6 (C. jejuni) = FliW-His6 (C. jejuni) (UniProt Q0P9H9); assay: SPR; BIAcore T100; FliW-His6 amine-coupled to CM5 chip; CsrA-His6 injected at 0-500 nM, 30 μL/min, 180 s association, 600 s dissociation; 20 mM phosphate buffer, 0.05% Tween 20, pH 7.4; bivalent analyte model, constant of the first binding event (KD1)
FliW-His6 = molecular target: T1, FliW-His6 (C. jejuni, UniProt Q0P9H9 1-129); assay: as above; details: both partners purified
T1 construct: FliW of Campylobacter jejuni, fliW cloned into pET-20b(+) (pET-20b-FliW-His6, Li et al., 2018); also called C. jejuni FliW
T1 sequence (looked up): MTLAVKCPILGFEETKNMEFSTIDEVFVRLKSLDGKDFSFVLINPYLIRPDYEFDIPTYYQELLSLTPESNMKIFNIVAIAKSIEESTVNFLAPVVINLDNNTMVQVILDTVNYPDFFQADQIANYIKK

## CsrA-N55A-His6 (from UniProt P0DPD4 1-75) (natural protein)
FliW-His6 (C. jejuni)
  KD of the first ligand binding site (KD1, bivalent analyte model): 93 nM

B1: CsrA-WT-His6 (natural protein, C. jejuni 81-176, UniProt P0DPD4 1-75, looked up)
chain: MLILSRKENESIIIGEGIEIKVVQTGKGYAKIGIEAPKSLMILRKELVQQVKDENLHSVVQNDIKLDDLSKKLIK
notes: CsrA of Campylobacter jejuni, 75 amino acids; csrA cloned into pET-20b(+) (pET-20b-CsrA-His6, Fields et al., 2016); also called CsrA-His6; source: purified as described previously (El Abbar et al., 2019); not shown: His6, C-terminal, kept
FliW-His6
  KD of the first ligand binding site (KD1, bivalent analyte model): 9 nM

B2: CsrA-V51A-His6 (natural protein, C. jejuni 81-176, UniProt P0DPD4 1-75, looked up)
chain: B1 chain with V51A
notes: CsrA of Campylobacter jejuni, 75 amino acids, with V51A; point mutation cloned into pET20b (El Abbar et al., 2019); source: purified as described previously (El Abbar et al., 2019); not shown: His6, C-terminal, kept
FliW-His6
  KD of the first ligand binding site (KD1, bivalent analyte model): 52 nM
